# Test results: patent US12331310B2, “Cell membrane penetrating conjugates for gene editing” (priority 2019, dated 2025)
# Several values for one entry are separate records, joined by “and”; a condition that tells them apart may be missing. Equal values may be shown once.
# B1: EfsQNR: recombinant β helical pentapeptide-repeat protein EfsQNR, amino acid sequence SEQ ID NO: 2 (protein)
# chain: GSHMKITYPLPPNLPEQLPLLTNCQLEDEAILENHLYQQIDLPNQEVRNLVFRDAVFDHLSLANGQFASFDCSNVRFEACDFSNVEWLSGSFHRVTFLRCNLTGTNFADSYLKDCLFEDCKADYASFRFANFNLVHFNQTRLVESEFFEVTWKKLLLEACDLTESNWLNTSLKGLDFSQNTFERLTFSPNYLSGLKVTPEQAIYLASALGLVIT
# modifications: Amino acid sequence of EfsQNR protein
# B2: AlbG: recombinant β helical pentapeptide-repeat protein AlbG, amino acid sequence SEQ ID NO: 1 (protein)
# chain: MPAKTLESKDYCGESFVSEDRSGQSLESIRFEDCTFRQCNFTEAELNRCKFRECEFVDCNLSLISIPQTSFMEVRFVDCKMLGVNWTSAQWPSVKMEGALSFERCILNDSLFYGLYLAGVKMVECRIHDANFTEADCEDADFTQSDLKGSTFHNTKLTGASFIDAVNYHIDIFHNDIKRARFSLPEAASLLNSLDIELSD
# modifications: Amino acid sequence of AlbG protein
# Tests used:
# Type in all cases: cell-based
# HeLa cells [1] = assay: Cellular uptake of drug (ruthenium metal complex), monitored by MTT assay; conditions: 24 hours, uptake correlated to cell death by MTT assay
# Experimental: Cellular uptake of drug—HeLa cells were used for determining the enhanced uptake of the drug using the cell penetrating conjugate of the present invention. HeLa cells were seeded at a concentration of 10,000 in a 96-well plate and allowed to grow for 6-8 hours. Ruthenium metal complex and EfsQNR were mixed in different ratios of 1:1, 1:2, and 1:3 to form a conjugate, which was subsequently added to the cells. […] The cell death after 24 hours was monitored by MTT assay as described previously and was correlated to the percentage uptake of ruthenium-EfsQNR conjugate by HeLa cells.
# FIG. 16 depicts the cellular uptake of the ruthenium metal complex Ru(CO)3Cl glycinate in HeLa cells. The ruthenium metal complex was conjugated with EfsQNR protein to form a conjugate consisting of ruthenium metal complex-EfsQNR. The HeLa cells were treated with the ruthenium metal complex-EfsQNR conjugate as described above (see “Cellular penetration studies” above) and uptake of the complex was detected by checking the viability of the cells by performing MTT assay as described previously. […] Therefore, it can be ascertained that the conjugate comprising EfsQNR protein facilitated 50-fold higher cellular uptake as compared to ruthenium metal complex alone. […]
# HeLa cells [2] = assay: MTT toxicity assay of AlbG and EfsQNR proteins; conditions: 30 μM protein; for viability as compared to the control cells: MTT; for absorbance values at 570 nm in MTT assay: triplicates, control wells 1.341-1.413
# Experimental: Toxicity assay—The industry-standard MTT assay (ex-Sigma Aldrich) was performed to analyse the toxicity of β-helical protein-cytotoxic drug conjugates against mammalian cells, for example HeLa cells. The cells were cultured by using standard protocol. One million cells were seeded in confocal plates (1 cm dish), grown for 6-8 h. A mixture of the cytotoxic drug and the EfsQNR protein (mixed at a ratio of 2:1) was added to the cells and incubated at room temperature for 15 minutes to 24 h to 72 h. After the incubation, the cells were washed with PBS and treated with MTT and further incubated for 24 hours. The cells were then washed and analysed for absorbance values at 570 nm. Viable cells with active metabolism convert MTT into a purple coloured formazan product with an absorbance maximum near 570 nm. Dead cells cannot convert MTT into formazan therefore, by analysing the absorbance values at 570 nm percentage of viable cells can be calculated for a given protein or any other molecule.
# MTT assay as described previously was employed to study toxicity of AlbG and EfsQNR proteins against HeLa cells. For the toxicity assay, samples of Placebo, control, AlbG (30 μM) and EfsQNR (30 μM) were used in triplicates. On observing the values, it can be appreciated that the cells treated with 30 μM of AlbG and 30 μM of EfsQNR display 95% viability as compared to the control cells.
# The placebo for this experiment was 20 mM Tris buffer of pH 8.0, whereas, the control considered was only HeLa cells without adding any protein or other substrate.
# [3] = test system: drug resistant strains of bacteria (Pseudovibrio sp. Ad37/5/13/14 and Enterobacter); assay: Uptake of A-520 labelled proteins in bacteria; conditions: protein labelled with green fluorescent dye (A-520), 10 μM, 24 hours
# Experimental: (§1) The uptake of labelled proteins was checked by treating E-coli and yeast (Kluveromyces) cells with different labelled proteins such as AlbG (SEQ ID NO: 1), EfsQNR (SEQ ID NO: 2). E coli or Kluveromyces cells were inoculated and grown overnight until OD reached 0.6. The cells were diluted to 50 times and 3 micromolar labelled protein (conjugate) was added. The cells were further grown under standard growth condition (37° C. shaking condition) for 24 h. The treated cells were then centrifuged and washed in PBS for 3-4 times. Then the cells were dispersed in 100 microliter PBS and then imaged in fluorescence/confocal microscope.
# (§2) • Respective bacteria and yeast strains were inoculated the day before the experiment and allowed to grow overnight; • The cells were centrifuged and 2 ml fresh media was added; • 100-200 μL of cells were added to the mixture; • 10 μM of green labelled CPP was added; • Fresh media was added to bring the volume to 1 mL; • After 24 hours the treated cells were centrifuged and washed in PBS 3-4 times; • the cells were dispersed in 100 microliter PBS and then imaged in fluorescence/confocal microscope (FIGS. 25 and 26). […]
# [4] = test system: yeast cells (Saccharomyces cerevisiae, Kluveromyces marxianus and Candida albicans); assay: Uptake of A-520 labelled proteins in yeast cells; conditions: protein labelled with green fluorescent dye (A-520), 10 μM, 24 hours
# Experimental: as §1, §2
# [5] = test system: plant cells (Arabidopsis); assay: Uptake of A-520 labelled proteins in plant cells; conditions: protein labelled with green fluorescent dye (A-520), 20 μM, 24 hours
# Experimental: • Respective bacteria and yeast strains were inoculated the day before the experiment and allowed to grow overnight; • The cells were centrifuged and 2 ml fresh media was added; • 100-200 μL of cells were added to the mixture; • 10 μM of green labelled CPP was added; • Fresh media was added to bring the volume to 1 mL; • After 24 hours the treated cells were centrifuged and washed in PBS 3-4 times; • the cells were dispersed in 100 microliter PBS and then imaged in fluorescence/confocal microscope (FIGS. 25 and 26). Protocol for Uptake in Plant Cells (Arabidopsis): • Plants were grown for 7 days prior to the experiment; • 20 μM of different cell-penetrating proteins such as AlbG (SEQ ID NO: 1), EfsQNR (SEQ ID NO: 2) labelled with a green fluorescent dye (A-520) were added to the plants in buffer [3 plants grown for 7 days] in 500 μL PBS; • The mixture was placed in a growth room for 24 hours under standard growth conditions (kept static in a room of continuous supply of light and 23° C. temperature); • The plants were washed with PBS 3 times and fresh PBS was then added and cells visualized under microscope. Non-coloured cells such as the cells of the roots and stems were chosen for visualisation to avoid interference (FIGS. 23 and 24). […]
# zebrafish embryos = assay: Uptake of A-520 labelled proteins in zebrafish embryos; conditions: protein labelled with green fluorescent dye (A-520), 10 μM, 2 h
# drosophila embryos = assay: Uptake of A-520 labelled proteins in drosophila embryos; conditions: protein labelled with green fluorescent dye (A-520), 10 μM, 2 h
Molecule,cellular uptake (HeLa cells [1]),viability as compared to the control cells (HeLa cells [2]),absorbance values at 570 nm in MTT assay (HeLa cells [2]),uptake observed by confocal laser scanning microscopy [3],uptake observed by confocal laser scanning microscopy [4],uptake observed by confocal laser scanning microscopy [5],uptake observed by confocal laser scanning microscopy (zebrafish embryos),uptake observed by confocal laser scanning microscopy (drosophila embryos)
"NCC(=O)O.[C-]#[O+].[C-]#[O+].[C-]#[O+].[Cl][Ru] [ruthenium metal complex, Ru(CO)3Cl glycinate]",0.5%,–,–,–,–,–,–,–
B1,–,95%,0.901 and 1.111 and 0.971,taken up,taken up,taken up,taken up,taken up
B2,–,95%,1.03 and 0.932 and 1.002,taken up,taken up,taken up,taken up,taken up
